Literature values, collected in PMC3897602 (PLoS ONE, 2014).

Settings: in vivo, po

For “biotinylation of exendin-4: biotinylated exendin-4 reported by Jin et al”, the apparent bioavailability is listed as 3.95%.
